The text below walks through data of patent US20210380703A1 (RIGEL PHARMACEUTICALS, published 2021).

The target of one test is T1, human ACVR2A (human, UniProt P27037 20-135, limits assumed).
T1 construct: coated antigen of the initial ELISA; also called activin receptor, type II A
The test can be described thus: ELISA. In outline: (§1)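 mAb binding by ELISA; antigens: hu ACVR2A, mu ACVR2A; pos ctrl biotinylated goat anti-hu kappa LC; neg ctrl hu Fc.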
(In an ELISA, binding on a coated surface is turned into a signal by an enzyme label.)

The target in the next test is T2, mouse ACVR2A (mouse, UniProt P27038 20-135, limits assumed).
T2 construct: coated antigen of the initial ELISA
T2 sequence (P27038 20-135 limits assumed): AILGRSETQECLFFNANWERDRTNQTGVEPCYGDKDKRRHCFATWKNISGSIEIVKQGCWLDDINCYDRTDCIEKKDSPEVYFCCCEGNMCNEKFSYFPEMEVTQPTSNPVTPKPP
In words: ELISA. In outline: as §1

For test [1], the target named is T3, biotinylated goat anti-human kappa light chain.
T3 construct: positive control of the ELISA
In words: ELISA, positive control. On the procedure: The binding of ACVR2A-specific monoclonal antibodies to human ACVR2A, mouse ACVR2A, biotinylated goat anti-human kappa light chain (positive control) and human Fc (negative control) were determined by ELISA.
Further: test concentration or dose not given here.

T1 sequence (P27037 20-135 limits assumed): as the sequence (P27038 20-135 limits assumed) above, with R20K, I73V counted along it

B1: 367_D08 (antibody, V domains shown)
VH: EVQLLESGGGLVQPGGSLRLSCAASGFTFSDYSMNWVRQAPGKGLEWVAGINYNGGYTSYADSVKGRFTISRDNSKNTLYLQMNSLRAEDTAVYYCARGANWHDTHLDYWGQGTLVTVSS
VL: DIQMTQSPSSLSASVGDRVTITCRASQSILSYLNWYQQKPGKAPKLVIYAATSRHSGVPSRFSGSGSGTDFTLTISSLQPEDFATYYCQQSDDLPLTFGGGTKVEIK
notes: Group III
As for B1, the optical density was 2.18 OD in the test with human ACVR2A, 2.37 OD in the test with mouse ACVR2A and 3.5 OD in test [1].

B2: 368_H02 (antibody, V domains shown)
VH: EVQLLESGGGLVQPGGSLRLSCAASGFTFSSYGMNWVRQAPGKGLEWVAGINYNSGYTSYADSVKGRFTISRDNSKNTLYLQMNSLRAEDTAVYYCARGANWHDTALDYWGQGTLVTVSS
VL: DIQMTQSPSSLSASVGDRVTITCRASQSIVTYLNWYQQKPGKAPKLVIYAATSRASGVPSRFSGSGSGTDFTLTISSLQPEDFATYYCQQSYESPLTFGGGTKVEIK
notes: Group III
As to B2, the figures for the optical density (with human ACVR2A; with mouse ACVR2A; in test [1]) were 2.41 OD, 2.54 OD and 3.58 OD, respectively.

B3: 368_A03 (antibody, V domains shown)
VH: EVQLLESGGGLVQPGGSLRLSCAASGFTFSSYSMNWVRQAPGKGLEWVSGINYNGGYTGYADSVKGRFTISRDNSKNTLYLQMNSLRAEDTAVYYCARGANWHDTHLDYWGQGTLVTVSS
VL: DIQMTQSPSSLSASVGDRVTITCRASQSIISYLNWYQQKPGKAPKLLIYAVTSRASGVPSRFSGSGSGTDFTLTISSLQPEDFATYYCQQSYENPLTFGGGTKVEIK
notes: Group III
Regarding B3, the optical density stood at 2.83 OD with human ACVR2A, 2.83 OD with mouse ACVR2A and 3.41 OD in test [1].

B4: 368_C08 (antibody, V domains shown)
VH: EVQLLESGGGLVQPGGSLRLSCAASGFTFSDYSMNWVRQAPGKGLEWVSGINYNGGYTSYADSVKGRFTISRDNSKNTLYLQMNSLRAEDTAVYYCARGANWHDTHLDYWGQGTLVTVSS
VL: DIQMTQSPSSLSASVGDRVTITCRASQSILTYVNWYQQKPGKAPKLLIYAASSLQSGVPSRFSGSGSGTDFTLTISSLQPEDFATYYCQQSYSTPLTFGGGTKVEIK
notes: Group III
In the case of B4, the optical density in the test with human ACVR2A was found to be 2.26 OD; with mouse ACVR2A, 2.43 OD; in test [1], 3.38 OD.

B5: 367_F01 (antibody, V domains shown)
VH: EVQLLESGGGLVQPGGSLRLSCAASGFTFDSYSMNWVRQAPGKGLEWVSNINYNGGYKSYADSVKGRFTISRDNSKNTLYLQMNSLRAEDTAVYYCARGANWHDTHLDYWGQGTLVTVSS
VL: not shown
notes: Group III
For B5, the results for the optical density (with human ACVR2A; with mouse ACVR2A; in test [1]) were 2.42 OD, 2.76 OD and 3.72 OD, respectively.

B6: 368_B09 (antibody, V domains shown)
VH: EVQLLESGGGLVQPGGSLRLSCAASGFTFDSYGMNWVRQAPGKGLEWVSNINYNGGYKGYADSVKGRFTISRDNSKNTLYLQMNSLRAEDTAVYYCARGANWHDTHLDYWGQGTLVTVSS
VL: DIQMTQSPSSLSASVGDRVTITCRASQSILSYLNWYQQKPGKAPKLLIYAATSRHSGVPSRFSGSGSGTDFTLTISSLQPEDFATYYCQQSYDTPLTFGGGTKVEIK
notes: Group III
For the molecule B6, the values for the optical density (with human ACVR2A; in the test with mouse ACVR2A; in test [1]) were 2.54 OD, 2.81 OD and 3.43 OD, respectively.

B7: 367_H03 (antibody, V domains shown)
VH: EVQLLESGGGLVQPGGSLRLSCAASGFTFSSYGMNWVRQAPGKGLEWVAGINYNSGYTSYADSVKGRFTISRDNSKNTLYLQMNSLRAEDTAVYYCARGANWHDTHLDYWGQGTLVTVSS
VL: DIQMTQSPSSLSASVGDRVTITCRASQSIITYVNWYQQKPGKAPKLLIYAATSLASGVPSRFSGSGSGTDFTLTISSLQPEDFATYYCQQSYDLPLTFGGGTKVEIK
notes: Group III
Turning to B7, the optical density in the test with human ACVR2A is 2.04 OD; in the test with mouse ACVR2A, 2.2 OD; in test [1], 3.34 OD.

B8: 367_D12 (antibody, V domains shown)
VH: EVQLLESGGGLVQPGGSLRLSCAASGFTFSSYSMNWVRQAPGKGLEWVSSINYNGGYTGYADSVKGRFTISRDNSKNTLYLQMNSLRAEDTAVYYCARGANWHDTHLDYWGQGTLVTVSS
VL: DIQMTQSPSSLSASVGDRVTITCRASQSIVSYVNWYQQKPGKAPKLVIYAATSRASGVPSRFSGSGSGTDFTLTISSLQPEDFATYYCQQSYESPLTFGGGTKVEIK
notes: Group III
In the case of B8, the optical density with human ACVR2A stood at 2.44 OD; in the test with mouse ACVR2A, 2.69 OD; in test [1], 3.57 OD.

B9: 367_G01 (antibody, V domains shown)
VH: EVQLLESGGGLVQPGGSLRLSCAASGFTFDSYGMNWVRQAPGKGLEWVASINYNSGYTGYADSVKGRFTISRDNSKNTLYLQMNSLRAEDTAVYYCARGANWHDTHLDYWGQGTLVTVSS
VL: DIQMTQSPSSLSASVGDRVTITCRASQSISSYLNWYQQKPGKAPKLVIYAATSRASGVPSRFSGSGSGTDFTLTISSLQPEDFATYYCQQSYDLPLTFGGGTKVEIK
notes: Group III
As for B9, the optical density with human ACVR2A was 1.8 OD; in the test with mouse ACVR2A it was 1.94 OD; in test [1] it was 3.58 OD.

B10: 367_E05 (antibody, V domains shown)
VH: EVQLLESGGGLVQPGGSLRLSCAASGFTFSSYGMNWVRQAPGKGLEWVAGINYNGGYTSYADSVKGRFTISRDNSKNTLYLQMNSLRAEDTAVYYCARGANWHDTHLDYWGQGTLVTVSS
VL: DIQMTQSPSSLSASVGDRVTITCRASQSILSYLNWYQQKPGKAPKLLIYAATSRHSGVPSRFSGSGSGTDFTLTISSLQPEDFATYYCQQSYDSPLTFGGGTKVEIK
notes: Group III
As for B10, the results for the optical density (with human ACVR2A; in the test with mouse ACVR2A; in test [1]) were 2.35 OD, 2.64 OD and 3.47 OD, respectively.

B11: 367_G04 (antibody, V domains shown)
VH: EVQLLESGGGLVQPGGSLRLSCAASGFTFSSYSMNWVRQAPGKGLEWVAGINYNSGYTSYADSVKGRFTISRDNSKNTLYLQMNSLRAEDTAVYYCARGANWHDTHLDYWGQGTLVTVSS
VL: DIQMTQSPSSLSASVGDRVTITCRASQSILSYLNWYQQKPGKAPKLVIYAATSRASGVPSRFSGSGSGTDFTLTISSLQPEDFATYYCQQSYDSPLTFGGGTKVEIK
notes: Group III
Consider B11, for which the optical density came to 2.98 OD in the test with human ACVR2A, 3.04 OD with mouse ACVR2A and 3.36 OD in test [1].

B12: 369_B05 (antibody, V domains shown)
VH: EVQLLESGGGLVQPGGSLRLSCAASGFTFDSYSMNWVRQAPGKGLEWVSGINYNGGYKSYADSVKGRFTISRDNSKNTLYLQMNSLRAEDTAVYYCARGANWHDTHLDYWGQGTLVTVSS
VL: DIQMTQSPSSLSASVGDRVTITCRASQSIISYLNWYQQKPGKAPKLLIYAATSLASGVPSRFSGSGSGTDFTLTISSLQPEDFATYYCQQSYDTPLTFGGGTKVEIK
notes: Group III
B12: the optical density with human ACVR2A is 2.78 OD; in the test with mouse ACVR2A, 3.06 OD; in test [1], 3.44 OD.

B13: 368_H05 (antibody, V domains shown)
VH: EVQLLESGGGLVQPGGSLRLSCAASGFTFSSYSMNWVRQAPGKGLEWVANINYNGGYKSYADSVKGRFTISRDNSKNTLYLQMNSLRAEDTAVYYCARGANWHDTHLDYWGQGTLVTVSS
VL: DIQMTQSPSSLSASVGDRVTITCRASQSIVSYVNWYQQKPGKAPKLVIYATTSRASGVPSRFSGSGSGTDFTLTISSLQPEDFATYYCQQSYESPLTFGGGTKVEIK
notes: Group III
Consider B13, for which the optical density was 1.95 OD with human ACVR2A, 2.2 OD in the test with mouse ACVR2A and 3.34 OD in test [1].

B14: 369_A07 (antibody, V domains shown)
VH: EVQLLESGGGLVQPGGSLRLSCAASGFTFSSYSMNWVRQAPGKGLEWVAGINYNGGYKGYADSVKGRFTISRDNSKNTLYLQMNSLRAEDTAVYYCARGANWHDTALDYWGQGTLVTVSS
VL: DIQMTQSPSSLSASVGDRVTITCRASQSILSYLNWYQQKPGKAPKLVIYAATSRASGVPSRFSGSGSGTDFTLTISSLQPEDFATYYCQQSYESPLTFGGGTKVEIK
notes: Group III
Turning to B14, the optical density amounted to 3.55 OD with human ACVR2A, 3.56 OD with mouse ACVR2A and 3.42 OD in test [1].

B15: 368_A04 (antibody, V domains shown)
VH: EVQLLESGGGLVQPGGSLRLSCAASGFTFDDYSMNWVRQAPGKGLEWVAGINYNGGYKSYADSVKGRFTISRDNSKNTLYLQMNSLRAEDTAVYYCARGANWHDTHLDYWGQGTLVTVSS
VL: DIQMTQSPSSLSASVGDRVTITCRASQSILTYLNWYQQKPGKAPKLVIYAVTSRASGVPSRFSGSGSGTDFTLTISSLQPEDFATYYCQQSYELPLTFGGGTKVEIK
notes: Group III
In the case of B15, the results for the optical density (in the test with human ACVR2A; in the test with mouse ACVR2A; in test [1]) were 2.35 OD, 2.35 OD and 3.56 OD, respectively.

B16: 368_E12 (antibody, V domains shown)
VH: EVQLLESGGGLVQPGGSLRLSCAASGFTFSDYGMNWVRQAPGKGLEWVAGINYNGGYTSYADSVKGRFTISRDNSKNTLYLQMNSLRAEDTAVYYCARGANWHDTHLDYWGQGTLVTVSS
VL: DIQMTQSPSSLSASVGDRVTITCRASQSIVSYVNWYQQKPGKAPKLVIYAVTSRASGVPSRFSGSGSGTDFTLTISSLQPEDFATYYCQQSYDSPLTFGGGTKVEIK
notes: Group III
As for B16, the results for the optical density (with human ACVR2A; with mouse ACVR2A; in test [1]) were 1.29 OD, 1.55 OD and 3.65 OD, respectively.

B17: 367_H02 (antibody, V domains shown)
VH: EVQLLESGGGLVQPGGSLRLSCAASGFTFDSYGMNWVRQAPGKGLEWVSSINYNGGYTGYADSVKGRFTISRDNSKNTLYLQMNSLRAEDTAVYYCARGANWHDTHLDYWGQGTLVTVSS
VL: not shown
notes: Group III
Take B17: the optical density is 1.08 OD in the test with human ACVR2A, 1.2 OD in the test with mouse ACVR2A and 3.62 OD in test [1].

B18: 368_F09 (antibody, V domains shown)
VH: EVQLLESGGGLVQPGGSLRLSCAASGFTFSSYGMNWVRQAPGKGLEWVSGINYNSGYTSYADSVKGRFTISRDNSKNTLYLQMNSLRAEDTAVYYCARGANWHDTHLDYWGQGTLVTVSS
VL: DIQMTQSPSSLSASVGDRVTITCRASQSILTYLNWYQQKPGKAPKLLIYAASSLQSGVPSRFSGSGSGTDFTLTISSLQPEDFATYYCQQSYETPLTFGGGTKVEIK
notes: Group III
On to B18, for which the optical density is 2.39 OD with human ACVR2A, 2.45 OD in the test with mouse ACVR2A and 3.58 OD in test [1].
